One experiment deals with MCF-7 cells. In words: MCF-7 cell proliferation assay, IGF-1R agonist format. The note with it: MCF-7 and MiaPaCa cells (Tables 27-28). The class given is cell-based, human. An excerpt: ; FIGS. 65A-65F), and were used for subsequent experiments.
Experiment [1] has as its system free fat cells (adipocytes). The experiment is described as follows: Adipocyte / free fat cell (FFC) assay, 3H glucose incorporation into lipid. The note with it: for FFC Pot., agonist or antagonist: Table 8, letter before the potency.
Procedure: Incorporation of ^3H into the lipid phase was determined by partitioning of lipid phase into a scintillant mixture, which excludes water-soluble ^3H products.
Experiment [2] deals with T1, human insulin receptor (HIR) (Homo sapiens, UniProt P06213).
T1 construct: made in house
The experiment is described as follows: Insulin receptor binding, competition with 125I-labeled insulin (HIR Kd). The note with it: insulin competition.

For experiment [3], the target named is recombinant human insulin receptor (Homo sapiens, UniProt P06213). In words: Substrate phosphorylation assay (HIR kinase). The class given is biochemical. The note with it: Table 8, HIR kinase assay. The procedure: Subsequently, a 2000-fold dilution of horseradish peroxidase (HRPO) conjugated phosphotyrosine antibody (Transduction Laboratories, Cat. No. E120H) in TBS was added. The plates were incubated for 30 min and washed 3 times with TBS. TMB (3,3′,5,5′-tetramethylbenzidine; Kem-En-Tec, Copenhagen, Denmark) was added. One substrate from Kem-En-Tec was added. After 10-15 min, the reaction was stopped by the addition of 1% acetic acid. The absorbance, representing the extent of substrate phosphorylation, was measured in a spectrophotometer at a wavelength of 450 nm.

In experiment [4] the target is T2, insulin receptor construct transfected into 32D cells (Homo sapiens, UniProt P06213).
T2 construct: expressed in transfected cells; host or cells: 32D cells (clone 969)
In words: IR autophosphorylation assay in IR transfected 32D cells (ELISA). The note with it: tested as MBP fusion peptides. The class given is cell-based. Here is the method: The IR transfected 32D cells were seeded at […] in 96-well tissue culture plates and incubated overnight at 37° C. […] The culture media was decanted from the cell culture plates, and the diluted samples were added to the cells. The plates were incubated at 37° C. for 30 min. The stimulation medium was decanted from the plates, and cell lysis buffer (50 mM HEPES pH 7.2, 150 mM NaCl, 0.5% Triton X-100, 1 mM AEBSF, 10 KIU/ml aprotinin, 50 μM leupeptin, and 2 mM sodium orthovanadate) was added. The cells were lysed for 30 min.
In the ELISA portion of the assay, the cell lysates were added to the BSA-blocked anti-IR unit mAb (Upstate Biotechnology, Lake Placid, N.Y.) coated ELISA plates. After a 2 h incubation, the plates were washed 6 times with PBST and biotinylated anti-phosphotyrosine antibody (Upstate Biotechnology) is added. After another 2 h incubation, the plates were again washed 6 times. Streptavidin-Eu was then added, and the plates were incubated for 1 h. After washing the plates again, EG&G Wallac enhancement solution (100 mM acetone-potassium hydrogen pthalate, pH 3.2; 15 mM 2-naphtyltrifluoroacetate; 50 mM tri(n-octyl)-phosphine oxide; 0.1% Triton X-100) was added into each well, and the plates were placed onto a shaker for 20 min at RT.
For orientation: An ELISA detects its analyte on a solid surface through an enzyme-linked reagent.

The next experiment concerns IR. In words: IR activity (agonist/antagonist) of MBP-peptide fusions, Table 10; test not named. The note with it: MBP-peptide fusion proteins; one symbol per monomer unit.

B1: RP30-IGF-12-D112: dimer peptide (Site 1-Site 1) (protein)
chain: ADYKDSFYSCLESLVNGGAERSDGQWEGCRGGSGGSGGSGGSCWARPCGDAANFYDWFVQQASKKAAAGAPVPYPDPLEPRPG
B1: the “IGF-1R agonist activity, proliferation of MCF-7 and MiaPaCa cells, in words” value in the experiment with MCF-7 cells is given as “IGF-1R agonist activity”.

B2: MADYKDDDDKGSLDESFYDWFERQLGKKGGSGGSGGSGGSWLDQEWAWVQCEVYGRGCPSAAA(ETAG)PG (protein)
chain: MADYKDDDDKGSLDESFYDWFERQLGKKGGSGGSGGSGGSWLDQEWAWVQCEVYGRGCPSAAAGAPVPYPDPLEPRPG
modifications: E-tag
With B2, in experiment [1], the “activity in the free fat cell (FFC) assay / at IR, in words” value is reported as “active as specific insulin receptor antagonists”; the “FFC Pot., agonist or antagonist” value is given as “N”; the “activity in the FFC assay using the standard concentration of insulin” value was “inactive”; the “activity in the FFC assay in the presence of a stimulating concentration of insulin” value was “antagonists”. The “IR / HIR binding affinity compared with monomer or homodimer peptides, in words” value in experiment [2] is on record as “substantially higher (several orders of magnitude) affinity”. In addition, the “Kinase Pot. (nM)” value in experiment [3] was “Inactive”.

B3: D112-12-RP30-IGF: dimer peptide (Site 1-Site 1) (protein)
chain: ADYKDCWARPCGDAANFYDWFVQQASKKGGSGGSGGSGGSSFYSCLESLVNGGAERSDGQWEGCRAAAGAPVPYPDPLEPRPG
For the molecule B3, in the experiment on MCF-7 cells, the “IGF-1R agonist activity, proliferation of MCF-7 and MiaPaCa cells, in words” value is “IGF-1R agonist activity”.

B4: MADYKDDDDKGSLDESFYDWFERQLGKKGGSGGSWLDQEWAWVQCEVYGRGCPSAAA(ETAG)PG (protein)
chain: MADYKDDDDKGSLDESFYDWFERQLGKKGGSGGSWLDQEWAWVQCEVYGRGCPSAAAGAPVPYPDPLEPRPG
modifications: E-tag
Regarding B4, in experiment [1], the “activity in the free fat cell (FFC) assay / at IR, in words” value is “active as specific insulin receptor antagonists”; the “FFC Pot., agonist or antagonist” value was “N”; the “activity in the FFC assay using the standard concentration of insulin” value is “inactive”; the “activity in the FFC assay in the presence of a stimulating concentration of insulin” value is listed as “antagonists”. Moreover, in experiment [2], the “IR / HIR binding affinity compared with monomer or homodimer peptides, in words” value is recorded as “substantially higher (several orders of magnitude) affinity”. Moreover, the “Kinase Pot. (nM)” value in experiment [3] is recorded as “Inactive”.

B5: H2C-3aa-H2C: MBP fusion, H2C dimer (Site 1-Site 1) with 3 amino acid linker (protein)
chain: NNNNLGIEGRISEFIEGRAQPAMAFHENFYDWFVRQVSGGSFHENFYDWFVRQVSAAAGAPVPYPDPLEPRAA
modifications: left off: large carriers; small tags and cut ends
On to B5, for which, in experiment [4], the “stimulation of autophosphorylation of IR” value is recorded as “active”.

B6: 463 (protein)
chain: NNNNLGIEGRISEFIEGRAQPAMAFHENFYDWFVRQVSGGSFHENFYDWFVRQVSAAAGAPVPYPDPLEPRAA
modifications: MBP fusion
Take B6: the “Act. (activity)” value in the experiment with IR is “A—A”.

B7: H2C-9aa-H2C: MBP fusion, H2C dimer (Site 1-Site 1) with 9 amino acid linker (protein)
chain: NNNNLGIEGRISEFIEGRAQPAMAFHENFYDWFVRQVSGGSGGSGGSFHENFYDWFVRQVSAAAGAPVPYPDPLEPRAA
modifications: left off: large carriers; small tags and cut ends
Take B7: the “stimulation of autophosphorylation of IR” value in experiment [4] is given as “active”.

The values are drawn from patent US20070004634A1 (Novo Nordisk A/S, priority 1998, published 2007).
